Experimental data taken from publication PMC5524369.

Key:
C1q (Homo sapiens) = C1q (Homo sapiens) (UniProt P02745); details: cited from earlier work
[1] = target: complement factor H (Homo sapiens) (UniProt P08603); experiment: SPR; details: cited from earlier work
[2] = target: Tamm-Horsfall protein (human) (UniProt P07911); experiment: ELISA; wells coated with 25 μg/ml THP; C3b 1 to 250 μg/ml in 20 mM Tris/20 mM NaCl/0.05% Tween 20 (pH 7.5) without BSA, overnight, 4°C; detected with goat anti-human C3b; fitted to B = (F × Cap)/(KD + F)
[3] = target: Tamm-Horsfall protein (human) (UniProt P07911); experiment: ELISA; wells coated with 25 μg/ml THP; CFH 10 to 250 μg/ml in 1% BSA/20 mM Tris/20 mM NaCl/0.05% Tween 20 (pH 7.5), overnight, 4°C; detected with goat anti-human CFH; fitted to B = (F × Cap)/(KD + F)
[4] = target: Tamm-Horsfall protein (human) (UniProt P07911); experiment: as above; remark: listed apart in the source

Sequence of complement factor H (P08603 19-1231): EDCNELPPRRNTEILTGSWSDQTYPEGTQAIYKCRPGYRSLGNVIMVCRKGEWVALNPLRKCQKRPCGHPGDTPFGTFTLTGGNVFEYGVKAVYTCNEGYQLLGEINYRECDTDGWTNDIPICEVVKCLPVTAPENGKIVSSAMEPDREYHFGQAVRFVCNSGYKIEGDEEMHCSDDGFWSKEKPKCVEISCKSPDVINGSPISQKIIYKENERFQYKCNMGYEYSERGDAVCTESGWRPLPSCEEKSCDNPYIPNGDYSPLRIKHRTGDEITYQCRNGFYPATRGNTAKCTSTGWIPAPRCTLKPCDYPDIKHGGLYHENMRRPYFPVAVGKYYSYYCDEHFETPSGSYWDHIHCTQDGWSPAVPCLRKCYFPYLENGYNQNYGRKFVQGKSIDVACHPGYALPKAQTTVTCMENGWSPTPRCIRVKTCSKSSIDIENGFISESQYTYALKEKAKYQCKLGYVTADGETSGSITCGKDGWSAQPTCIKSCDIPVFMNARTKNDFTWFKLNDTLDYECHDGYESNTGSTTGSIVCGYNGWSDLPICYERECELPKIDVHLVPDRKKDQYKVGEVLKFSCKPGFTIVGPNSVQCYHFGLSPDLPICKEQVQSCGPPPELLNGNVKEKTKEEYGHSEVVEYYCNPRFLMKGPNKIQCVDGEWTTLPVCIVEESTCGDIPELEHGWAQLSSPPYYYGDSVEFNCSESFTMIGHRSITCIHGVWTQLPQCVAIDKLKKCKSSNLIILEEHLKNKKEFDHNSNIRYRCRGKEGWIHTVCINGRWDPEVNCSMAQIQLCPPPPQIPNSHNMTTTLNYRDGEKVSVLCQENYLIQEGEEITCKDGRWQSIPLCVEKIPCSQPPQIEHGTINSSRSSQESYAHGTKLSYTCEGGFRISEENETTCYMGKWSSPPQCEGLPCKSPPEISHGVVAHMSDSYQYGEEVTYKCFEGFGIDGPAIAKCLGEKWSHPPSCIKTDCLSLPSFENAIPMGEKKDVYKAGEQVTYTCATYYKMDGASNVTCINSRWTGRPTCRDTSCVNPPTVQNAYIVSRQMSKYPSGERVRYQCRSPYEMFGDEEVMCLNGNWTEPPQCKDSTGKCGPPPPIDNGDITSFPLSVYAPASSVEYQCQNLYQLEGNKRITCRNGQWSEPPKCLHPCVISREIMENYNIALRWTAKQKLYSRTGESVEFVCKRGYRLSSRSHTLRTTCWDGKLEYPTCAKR
Sequence of C1q (Homo sapiens) (P02745 23-245, chain 1 of 3): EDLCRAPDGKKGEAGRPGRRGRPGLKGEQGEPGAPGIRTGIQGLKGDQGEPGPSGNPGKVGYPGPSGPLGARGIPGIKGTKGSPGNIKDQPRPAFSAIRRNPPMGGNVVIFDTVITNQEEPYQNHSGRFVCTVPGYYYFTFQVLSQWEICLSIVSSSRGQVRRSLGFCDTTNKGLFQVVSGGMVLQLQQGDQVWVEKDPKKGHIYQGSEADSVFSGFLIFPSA
Sequence of C1q (Homo sapiens) (P02746 28-253, chain 2 of 3, further chain): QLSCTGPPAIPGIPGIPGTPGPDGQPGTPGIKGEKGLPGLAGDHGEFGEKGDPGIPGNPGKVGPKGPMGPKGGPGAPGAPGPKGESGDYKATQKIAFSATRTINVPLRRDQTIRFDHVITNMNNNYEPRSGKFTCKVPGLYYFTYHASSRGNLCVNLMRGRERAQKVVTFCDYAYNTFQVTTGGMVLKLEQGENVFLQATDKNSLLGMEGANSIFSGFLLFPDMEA
Sequence of C1q (Homo sapiens) (P02747 29-245, chain 3 of 3, further chain): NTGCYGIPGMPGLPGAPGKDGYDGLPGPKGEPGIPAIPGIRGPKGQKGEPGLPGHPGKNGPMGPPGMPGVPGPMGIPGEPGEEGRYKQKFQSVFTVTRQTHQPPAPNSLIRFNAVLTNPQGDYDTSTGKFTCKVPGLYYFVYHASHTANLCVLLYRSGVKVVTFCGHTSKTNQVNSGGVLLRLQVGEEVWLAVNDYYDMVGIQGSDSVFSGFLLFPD
Sequence of complement factor H (Homo sapiens) (P08603 19-1231): as the sequence (P08603 19-1231) above

Substance: THP (uromodulin) (from UniProt P07911)
- Kd (C1q (Homo sapiens)): 1 nM
- Kd [1]: 4 µM

Substance: complement 3b (from UniProt P01024 749-1663; P01024 749-1663) (natural protein)
- Kd [2]: 50 nM

Substance: complement factor H (from UniProt P08603 19-1231) (natural protein)
- Kd [3]: 1000 nM
- Kd [4]: 1200 nM
